Data reported in PMC446230.

How the values were obtained:
[1] = biological target: DC-SIGN (DC-specific intercellular adhesion molecule-3 (ICAM-3)-grabbing nonintegrin) on K562/DC-SIGN cells (human) (UniProt Q9NNX6); test: virus adhesion to cells, captured virus measured by p24 ELISA
[2] = biological target: DC-SIGN (DC-specific intercellular adhesion molecule-3 (ICAM-3)-grabbing nonintegrin) on Raji/DC-SIGN cells (human) (UniProt Q9NNX6); test: as above

Substance: R5-tropic HIV-1ADA envelope glycoprotein on pseudotyped HIV-Luc/ADA particles (natural protein)
- fold HIV-1 binding relative to the parental cells [1]: 1.8 fold
- fold HIV-1 binding relative to the parental cells [2]: 1.5 fold
